Test results: publication PMC2686265, “ATP and MO25α Regulate the Conformational State of the STRADα Pseudokinase and Activation of the LKB1 Tumour Suppressor” (PLoS Biology, 2009)
Substitutions are numbered along the chain they refer to. Like-named read-outs stand apart in the source and are kept apart here.

Columns and labels:
Experiment in all cases: SPR BIAcore binding of STRADα to immobilised MO25α
[1] = biological target: T1, MO25α (R227A) (Homo sapiens, UniProt Q7RTN6+Q9Y376, R227A)
T1 construct: wild-type and mutant forms of STRADα (residues 54–431) and MO25α (residues 1–341) were expressed individually as GST fusion proteins in E. coli; GST (cleaved yes); made in house; host or cells: E. coli
T1 sequence (Q9Y376 1-341 R227A): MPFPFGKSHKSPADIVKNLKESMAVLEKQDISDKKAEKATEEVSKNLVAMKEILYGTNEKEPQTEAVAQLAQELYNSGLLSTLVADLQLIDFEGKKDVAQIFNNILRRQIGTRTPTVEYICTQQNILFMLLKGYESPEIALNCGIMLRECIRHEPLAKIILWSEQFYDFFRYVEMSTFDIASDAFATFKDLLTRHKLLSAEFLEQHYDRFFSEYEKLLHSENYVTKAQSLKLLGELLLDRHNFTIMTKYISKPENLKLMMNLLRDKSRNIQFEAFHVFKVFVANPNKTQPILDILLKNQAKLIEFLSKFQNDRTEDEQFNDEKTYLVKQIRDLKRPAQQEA
T1 sequence (Q7RTN6 59-431): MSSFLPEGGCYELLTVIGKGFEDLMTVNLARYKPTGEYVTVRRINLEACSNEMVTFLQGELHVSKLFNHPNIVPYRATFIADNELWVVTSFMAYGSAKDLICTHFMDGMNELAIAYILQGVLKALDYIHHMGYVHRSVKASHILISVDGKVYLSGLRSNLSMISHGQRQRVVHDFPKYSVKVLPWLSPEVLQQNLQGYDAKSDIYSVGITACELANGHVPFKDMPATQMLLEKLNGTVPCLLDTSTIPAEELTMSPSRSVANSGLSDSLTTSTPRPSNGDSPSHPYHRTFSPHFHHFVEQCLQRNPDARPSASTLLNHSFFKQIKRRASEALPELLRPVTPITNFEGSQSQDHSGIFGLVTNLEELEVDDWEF
Method: (§1) SPR measurements were performed using a BIAcore T100 instrument. Wild-type and mutant forms of MO25α were immobilized on a CM5 sensor chip using standard amine-coupling chemistry, and 10 mM HBS (pH 7.4) was used as the running buffer. The carboxymethyl dextran surface was activated with a 7-min injection of a 1∶1 ratio of 0.4 M 1-ethyl-3-(3-dimethylaminopropyl) carbodiimide hydrochloride (EDC)/0.1 M N-hydroxy succinimide (NHS). MO25α (5–7 µM) was coupled to the surface with a 1-min injection of protein diluted in 10 mM sodium acetate (pH 5.5). Remaining activated groups were blocked with a 7-min injection of 1 M ethanolamine (pH 8.5). MO25α was immobilised on three flow cells of a CM5 chip at densities 1,700–2,500 RU performed at 25°C, leaving one flow cell as a reference to subtract any possible nonspecific binding.
(§2) STRADα was prepared in running buffer containing 50 mM Tris (pH 7.8), 50 mM NaCl, 270 mM sucrose, 1 mM DTT, 0.005% P20, and 0.1 mg/ml BSA in the presence/absence of 100 µM ATP and 1 mM MgCl2, and injected over all four surfaces at nine concentrations of a 3-fold concentration series (5 µM to […]). Each concentration was injected in duplicate over all surfaces. Association was measured for 60 s at a flow rate of 50 µl/min, and dissociation was measured for 3 min. STRADα dissociated completely from the MO25α surfaces, thus eliminating the need for a regeneration step.
(§3) Data were analysed using Scrubber 2 (BioLogic Software) and CLAMP software. Data were double referenced to the reference surface to subtract any possible nonspecific binding and to the blank buffer injections to subtract drift of the target from surface. Data were fitted to a 1∶1 or 2∶1 binding site model where appropriate. Kinetic association (k a) and dissociation rate (k d) constants were separately determined from the BIAcore sensorgrams, and equilibrium dissociation constants (K d) were calculated as: K d1 = k d1/k a1 and K d2 = k d2/k a2. Equilibrium constants were also independently calculated from a saturation binding curve, by fitting the measured response (R) from specific binding to the following equation: R = (R max1[STRAD]/([STRAD]+K d1))+(R max2[STRAD]/([STRAD]+K d2)), where R max1 and R max2 are the relative maximal changes in response for sites 1 and 2, respectively, and K d1 and K d2 are the equilibrium dissociation constants for sites 1 and 2, respectively. Dose-response curves for calculating the Hill slope (H) of the data were fitted with the following equation: R = minimum+(maximum−minimum)/(1+10^((logEC50−[STRAD])×H)) using GraphPad-PRISM software.

[2] = biological target: T2, MO25α (R227A/M260A) (Homo sapiens, UniProt Q9Y376, M260A/R227A); details: even in the presence of ATP
T2 construct: wild-type and mutant forms of STRADα (residues 54–431) and MO25α (residues 1–341) were expressed individually as GST fusion proteins in E. coli; GST (cleaved yes); made in house; host or cells: E. coli
Method: as §1, §2, §3

[3] = biological target: T3, MO25α (WT) (Homo sapiens, UniProt Q7RTN6+Q9Y376)
T3 construct: wild-type and mutant forms of STRADα (residues 54–431) and MO25α (residues 1–341) were expressed individually as GST fusion proteins in E. coli; GST (cleaved yes); made in house; host or cells: E. coli (STRADα: BL21(DE3)pLysS, co-expressed with MO25α and then separated from it)
T3 sequence (Q9Y376 1-341): T1 sequence (Q9Y376 1-341 R227A) with A227R
T3 sequence (Q7RTN6 59-431): T1 sequence (Q7RTN6 59-431)
Method: as §1, §2, §3

[4] = biological target: T4, MO25α (M260A) (Homo sapiens, UniProt Q7RTN6+Q9Y376, M260A)
T4 construct: wild-type and mutant forms of STRADα (residues 54–431) and MO25α (residues 1–341) were expressed individually as GST fusion proteins in E. coli; GST (cleaved yes); made in house; host or cells: E. coli
T4 sequence (Q9Y376 1-341 M260A): T1 sequence (Q9Y376 1-341 R227A) with A227R, M260A
T4 sequence (Q7RTN6 59-431): T1 sequence (Q7RTN6 59-431)
Method: as §1, §2, §3

T2 sequence (Q9Y376 whole entry R227A/M260A, one chain of several, the tested form may be a part): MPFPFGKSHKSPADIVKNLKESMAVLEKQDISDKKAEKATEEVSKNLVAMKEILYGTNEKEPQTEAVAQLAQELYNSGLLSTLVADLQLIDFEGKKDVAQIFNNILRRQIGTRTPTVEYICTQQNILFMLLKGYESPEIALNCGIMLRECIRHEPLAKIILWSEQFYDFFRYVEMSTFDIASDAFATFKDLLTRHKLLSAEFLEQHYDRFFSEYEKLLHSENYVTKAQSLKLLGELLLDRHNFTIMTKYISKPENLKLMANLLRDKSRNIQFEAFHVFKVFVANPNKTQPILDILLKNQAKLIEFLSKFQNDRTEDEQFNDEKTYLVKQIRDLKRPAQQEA

B1: STRADα: STRADα pseudokinase (residues 59–431), His tag removed, analyte injected over immobilised MO25α in SPR (protein)
chain: T1 sequence (Q7RTN6 59-431)
modifications: left off: His6 with TEV site (…), N-terminal, cleaved
notes: STRADα pseudokinase (residues 59–431), His tag removed, analyte injected over immobilised MO25α in SPR
B1 was tested, and the kd1 ([1]; + ATP + Mg2+) was 0.72 (2.0 × 10−3) s−1, the “binding of STRADα observed by SPR” value ([1]; in the absence of ATP) was “virtually abolished binding” and the “interaction with STRADα” value [2] was “failed to interact”. The Kd ([3]; + 0.1 mM ATP, Kd = kd/ka, read-out: Kd1) was 2.5 µM, the kd1 ([3]; + ATP + Mg2+) was 0.43 (1.4 × 10−3) s−1 and the kd2 ([3]; + ATP + Mg2+) was 0.04 (8.8 × 10−5) s−1. The Hill slope ([3]; in the presence of ATP, two-site binding) was 0.4, the Kd ([3]; in the presence of ATP, read-out: second binding constant (Kd2)) was 0.012 µM and the kd1 ([3]; no ATP) was 0.63 (3.0 × 10−3) s−1. For the same molecule, the Kd ([3]; no ATP, Kd = kd/ka, read-out: Kd1) was 3.8 µM, the kd1 ([4]; + ATP + Mg2+) was 0.43 (1.7 × 10−3) s−1 and the kd2 ([4]; + ATP + Mg2+) was 0.05 (2.3 × 10−4) s−1. The kd1 ([4]; no ATP) was 0.92 (3.0 × 10−3) s−1.
